Reference: US20210162028A1, “Methods for Inducing Intermittent Fasting and Modulating Autophagy” (The Hong Kong Polytechnic University, priority 2019, published 2021)
Entries after “also recorded” stand apart in the source; their conditions may differ.

Columns and labels:
Type in all cases: in vivo, mouse
[1] = Liver and kidney damage biomarkers (serum ALT/AST, urine albumin-to-creatinine); details: DIO C57BL/6J male mice on HFD; about 600 U once a week, 34 weeks
From the text: Other than WAT and BAT, obesity is associated with excessive accumulation of lipids in the liver (hepatic steatosis). Indeed, the liver of vehicle-treated DIO mice was markedly enlarged (FIG. 7A), with a mass about 3 times (4.68 g) that of the lean control (1.73 g) (FIG. 7B).
Other than liver, obesity is also commonly associated with lipid accumulation in the kidney (renal steatosis) and heart (cardiac steatosis), causing lipotoxicity and dysfunction of these organs. Indeed, there was an increase in kidney and heart mass in DIO mice treated with vehicle (FIG. 8A and FIG. 9A).

LC3-II/LC3-I = assay: Autophagic flux in liver, LC3-II/LC3-I western blot with chloroquine; details: DIO male mice on HFD; 600 U once a week, 4 weeks; Day 3 of cycle
Method: Ratio of LC3-II/LC3-I proteins was used as a marker of autophagy and was semiquantified by western blotting. Chloroquine (an autophagy inhibitor, CQ) was injected 5 hr to accumulate autophagosome in the liver before tissue collection. *P<0.05, one-way ANOVA followed by Bonferroni test. Data are expressed as mean±SEM, n=3 for each group.
Autophagy is involved in cell growth, survival, development and death. Impaired autophagic flux has been linked to a variety of human pathophysiological processes, including neurodegeneration, cancer, myopathy, cardiovascular and immune-mediated disorders. There is a growing need to identify and quantify the status of autophagic flux in different pathological conditions. Autophagy is a highly dynamic and complex process that is regulated at multiple steps. Autophagic flux can be detected by LC3-II turnover using western blot analysis in the presence and absence of lysosomal degradation inhibitors, chloroquine (CQ). If autophagic flux is occurring, the level of LC3-II will increase in the presence of a lysosomal degradation inhibitor because the transit of LC3-II through the autophagic pathway will be blocked.

[2] = Hepatic steatosis (oil Red O / H&E staining, liver triglyceride); details: DIO C57BL/6J male mice on HFD; for Lipid in liver (H&E staining): 11 weeks after treatment
[3] = tested on: p62, LC3-II/LC3-I, p70S6K1, ULK1; assay: Western blotting of autophagy markers in brown adipose tissue; details: 600 U once a week, 4 weeks
From the text: FIG. 49 illustrates the changes of relative p62 protein levels, detected by western blotting, at different days of a 7-day intermittent fasting cycle in the brown adipose tissue (BAT) of HFD-induced C57BL/6J DIO male mice administered with 600 U N-ABD094-rhArg (SEQ ID NO: 50) once a week for 4 weeks. The p62 protein is a receptor for cargo destined to be degraded by autophagy. The marked reduction in p62 levels from Day 1 to Day 3 indicated enhanced autophagy that coincided with the entry into the fasting phase. The increase in p62 levels from Day 5 to Day 7 implicated a decrease in autophagy, which coincided with the entry into the refeeding phase. *P<0.05, one-way ANOVA followed by Bonferroni test. Data are expressed as mean±SEM, n=4 for each group.
Ratio of LC3II/LC3-I was used as a marker of autophagy and semiquantified by western blotting. Chloroquine (an autophagy inhibitor, CQ) were injected 5 hr to accumulate autophagosomes in the BAT before tissue collection. *P<0.05, one-way ANOVA followed by Bonferroni test. Data are expressed as mean±SEM, n=4 for [HFD (vehicle)] and [HFD (rhArg)] group without CQ; n=3 for CQ-treated group.
Data are expressed as mean±SEM, n=4 each group.
The p62, also known as SQSTMl/sequestome 1, serves as a link between LC3B and ubiquitinated substrates and is efficiently degraded by autophagy. Thus, the level of p62 proteins can be used to monitor autophagic flux. For example, autophagic suppression correlates with an increased p62 level, and similarly, autophagic activation correlates with a decreased p62 level. […] Besides, the expression level of autophagy marker LC3B was detected in presence or absence of CQ (FIG. 50). The conversion of LC3B -I to the lower migrating form, LC3B-II, is used as an indicator of cellular autophagy level. The higher the LC3B-II/LC3B-I ratio indicates the higher incidence rate of autophagy in the tissue.

brown adipocyte = assay: Transmission electron microscopy of interscapular brown adipose tissue; details: HFD-fed male mice, 600 U once a week, 4 weeks
From the text: FIG. 52 illustrates the interscapular brown adipose tissue (iBAT) examined by transmission electron microscopy at Day 3 and Day 7 of a 7-day intermittent fasting cycle after N-ABD094-rhArg injection. (A) The BAT of HFD-fed male mice administered with 600 U N-ABD094-rhArg (SEQ ID NO: 50) [HFD (rhArg) group] once a week for 4 weeks, in comparison to that of HFD-fed mice treated with vehicle [HFD (vehicle) group] […] (C) As examined under 5000× magnification, autophagosome engulfed the lipid droplet and breaking into tiny particles.
After prolonged feeding on a HFD, there was a further increase in the size (FIG. 53A) and weight of the interscapular BAT (FIG. 53B) in vehicle-treated DIO mice [HFD (vehicle) group] in comparison to the lean control mice [CD (vehicle) group], which was correlated with the presence of massive amount of enlarged white-like unilobular cells (FIG. 53A). As observed under transmission electron microscopy, brown adipocyte in mice fed with HFD [HFD (vehicle) group] had massive enlarged lipid droplets (FIG. 52A). […] Many autophagosomes were actively forming and engulfing the lipid droplets (FIG. 52B). The autolysosome was also found to be breaking down small lipid droplets, mixing with plenty of lysosomes in the structure (FIG. 52C).

[4] = Insulin tolerance test (ITT); details: 17-month old C57BL/6J male mice on chow diet; once a week; at 13 weeks
[5] = DIO male mice on HFD, Day 3 of cycle

B1: N-ABD094-rhArg: recombinant human arginase fused to albumin binding domain ABD094 (SEQ ID NO: 50); engineered long-acting arginine-depleting enzyme (protein)
chain: MHHHHHHDEAVDANSLAEAKEAANAELDSYGVSDFYKRLIDKAKTVEGVEALKDAILAALPSGSNNNNNNGSGGMSAKSRTIGIIGAPFSKGQPRGGVEEGPTVLRKAGLLEKLKEQECDVKDYGDLPFADIPNDSPFQIVKNPRSVGKASEQLAGKVAEVKKNGRISLVLGGDHSLAIGSISGHARVHPDLGVIWVDAHTDINTPLTTTSGNLHGQPVSFLLKELKGKIPDVPGFSWVTPCISAKDIVYIGLRDVDPGEHYILKTLGIKYFSMTEVDRLGIGKVMEETLSYLLGRKKRPIHLSFDVDGLDPSFTPATGTPVVGGLTYREGLYITEEIYKTGLLSGLDIMEVNPSLGKTPEEVTRTVNTAVAITLACFGLAREGNHKPIDYLNPPK
modifications: N-ABD094-rhArg, Synthesized in the Lab
notes: engineered long-acting arginine-depleting enzyme
- Ratio of albumin-to-creatinine in urine [1]: levels similar to the age-matched lean control mice
- Serum concentrations of ALT and AST [1]: restored to levels comparable to the lean control mice
- LC3-II/LC3-I ratio in liver upon chloroquine injection (autophagic flux) (LC3-II/LC3-I): dramatic increase; also recorded: enhancement of autophagic flux
- Lipid droplets in liver (oil Red O) ([2]; 600 U once a week, 12 weeks): dramatic clearance of lipid droplets
- Liver triglyceride concentrations ([2]; 600 U once a week, 12 weeks): reduced to a level similar to the lean control
- Lipid in liver (H&E staining) ([2]; rhArg and/or RA): significant effect on diminishing lipid in liver
- Lipid in liver (H&E staining) ([2]; rhArg and/or metformin): slight effect of diminishing lipid in liver
- p62 protein level in BAT ([3]; DIO C57BL/6J male mice on HFD, days of the 7-day cycle): significant decrease in p62 level at Day 3 and Day 5
- LC3-II/LC3-I ratio in BAT upon chloroquine injection [3, 5]: dramatic increase upon injection of CQ
- ULK1 in BAT [3, 5]: stimulation
- p70S6K1 in BAT [3, 5]: significant suppression
- TEM of BAT, Day 3: autophagy/lipophagy (brown adipocyte): active lipophagy at Day 3
- TEM of BAT, Day 7: autophagosomes and autolysosomes (brown adipocyte): continuous active autophagy (lipophagy) was taking place; also recorded: autophagosome and autolysosome numbers had prominently reduced by Day 7
- TEM of BAT, Day 7: mitochondria (brown adipocyte; compared with Day 3): relatively large amount of mitochondria; also recorded: an increase in mitochondria number was observed
- Insulin sensitivity in ITT [4]: significantly improve insulin sensitivity; also recorded: effectively improve insulin sensitivity
